In US9809808B2, “Antimicrobial agents” (KATHOLIEKE UNIVERSITEIT LEUVEN K.U. LEUVEN R&D, priority 2008, dated 2017):
Changes are numbered by the printed parent chain. Where two headings read alike, the source gives them in different places.

B1: PSP3gp10: SEQ ID NO: 8: unmodified globular endolysin with 165 amino acid residues originating from Salmonella typhimurium phage PSP3 (protein)
chain: MPVINTHQNIAAFLDMLAYSEGTANHPLTKNRGYDVIVTGFDGSPEIFTDYSDHPFAHGRPPKVFNRRGEKSTASGRYQQLYIFWPHYKKQLALPDFSPLSQDKLAIQLIRERGAIDDIRAGRIERAVSRCRNIWASLPGAGYGQREHSLEKLVTVWRTAGGVMA
modifications: PSP3gp10
B2: P2gp09: SEQ ID NO: 9: unmodified globular endolysin of 165 amino acid residues originating from Escherichia coli phage P2 (protein)
chain: B1 chain with Y19V, F41L, S44K, P62A, I83L, K89R, K104R, I116L, V128I, M164P
modifications: P2gp09
B3: PKPSP3gp10: SEQ ID NO: 53: PSP3gp10 (SEQ ID NO: 8) with N-terminal peptide stretch KRKKRKKRK (SEQ ID NO: 11) (protein)
chain: MGSKRKKRKKRKPVINTHQNIAAFLDMLAYSEGTANHPLTKNRGYDVIVTGFDGSPEIFTDYSDHPFAHGRPPKVFNRRGEKSTASGRYQQLYIFWPHYKKQLALPDFSPLSQDKLAIQLIRERGAIDDIRAGRIERAVSRCRNIWASLPGAGYGQREHSLEKLVTVWRTAGGVMA
modifications: PKPSP3gp10
B4: PKP2gp09: SEQ ID NO: 57: P2gp09 (SEQ ID NO: 9) with N-terminal peptide stretch KRKKRKKRK (SEQ ID NO: 11) (protein)
chain: B3 chain with Y30V, F52L, S55K, P73A, I94L, K100R, K115R, I127L, V139I, M175P
modifications: PKP2gp09

Assays:
[1] = tested on: P. aeruginosa Br667; assay: Antibacterial activity of PSP3gp10 and PKPSP3gp10 with and without EDTA (30 minutes, colony count); type: cell-based, Pseudomonas aeruginosa
[2] = tested on: Salmonella typhimurium LT2; assay: as above; type: cell-based
Description: (§1) To determine the anti-Gram-negative spectrum of the PKPSP3gp10 endolysin according to SEQ ID NO: 53, a combination of 1.315 μM PKPSP3gp10 endolysin and 0.5 mM EDTA was tested on the clinical P. aeruginosa strains PAO1p and Br667, Escherichia coli WK6, and Salmonella typhimurium (see Table 5). Exponential growing bacterial cells (OD600 nm of 0.6) were 100-fold diluted to a final density of about 10^6/ml of each strain were incubated for 30 minutes at room temperature without shaking with unmodified endolysin […] (SEQ ID NO: 8) and modified endolysin PKPSP3gp10 (SEQ ID NO: 53) each in combination without and with 0.5 mM EDTA. […] As a control each strain was also incubated for 30 minutes with 0.5 mM EDTA (in same buffer as outlined above) but no endolysin.
(§2) After incubation cell suspensions were diluted three times (respectively 10^5-10^4-10^3 cells/ml) and 100 μl of each dilution was plated out on LB-medium.

[3] = tested on: Escherichia coli WK6; assay: as above; type: cell-based
Description: as §1, §2

[4] = tested on: P. putida G1; assay: Antibacterial activity of P2gp09 and PKP2gp09 with and without EDTA (30 minutes, colony count); type: cell-based, Pseudomonas putida; settings: for relative inactivation in logarithmic units (log10N0/Ni): 30 minutes
[5] = tested on: P. aeruginosa Br667; assay: as above; type: cell-based, Pseudomonas aeruginosa; settings: for relative inactivation in logarithmic units (log10N0/Ni): 30 minutes
[6] = tested on: Escherichia coli WK6; assay: as above; type: cell-based; settings: for relative inactivation in logarithmic units (log10N0/Ni): 30 minutes
Description: To determine the anti-Gram-negative spectrum of the PK2gp09 endolysin according to SEQ ID NO: 57, a combination of 1.315 μM PK2gp09 endolysin and 0,5 mM EDTA was tested on the clinical P. aeruginosa strains PAO1p and Br667 and on Escherichia coli WK6 (see Table 9). Exponential growing bacterial cells (OD600 nm of 0.6) were 100-fold diluted to a final density of about 10^6/ml of each strain was incubated for 30 minutes at room temperature without shaking with unmodified endolysin P2gp09 (SEQ ID NO: 9) and modified endolysin PKP2gp09 (SEQ ID NO: 57) each in combination without and with 0.5 mM EDTA. […] As a control each strain was also incubated for 30 minutes with 0.5 mM EDTA (in same buffer as outlined above) but no endolysin. After incubation cell suspensions were diluted three times (respectively 10^5-10^4-10^3 cells/ml) and 100 μl of each dilution was plated out on LB-medium.

[7] = tested on: Burkholderia pseudomallei; type: cell-based; settings: for relative inactivation in logarithmic units (log10N0/Ni): 30 minutes
[8] = 1.315 μM endolysin + 0.5 mM EDTA

Molecule	relative inactivation in logarithmic units (log10N0/Ni) [1, 8]	relative inactivation in logarithmic units (log10N0/Ni) ([1]; 1.315 μM endolysin, no EDTA)	relative inactivation in logarithmic units (log10N0/Ni) [2, 8]	relative inactivation in logarithmic units (log10N0/Ni) ([2]; 1.315 μM endolysin, no EDTA)	relative inactivation in logarithmic units (log10N0/Ni) [3, 8]	relative inactivation in logarithmic units (log10N0/Ni) ([3]; 1.315 μM endolysin, no EDTA)	relative inactivation in logarithmic units (log10N0/Ni) [4, 8]	relative inactivation in logarithmic units (log10N0/Ni) ([4]; 1.315 μM endolysin, no EDTA)	relative inactivation in logarithmic units (log10N0/Ni) [5, 8]	relative inactivation in logarithmic units (log10N0/Ni) ([5]; 1.315 μM endolysin, no EDTA)	relative inactivation in logarithmic units (log10N0/Ni) [6, 8]	relative inactivation in logarithmic units (log10N0/Ni) ([6]; 1.315 μM endolysin, no EDTA)	relative inactivation in logarithmic units (log10N0/Ni) [7, 8]	relative inactivation in logarithmic units (log10N0/Ni) ([7]; 1.315 μM endolysin, no EDTA)	further results
B1	0.571 +/− 0.035 logarithmic units	0.375 +/− 0.056 logarithmic units	0.690 +/− 0.036 logarithmic units	0.283 +/− 0.038 logarithmic units	0.387 +/− 0.014 logarithmic units	0.190 +/− 0.029 logarithmic units	–	–	–	–	–	–	–	–	–
B2	–	–	–	–	–	–	3.919 logarithmic units	0.419 logarithmic units	0.582 logarithmic units	0.246 logarithmic units	0.784 logarithmic units	0.751 logarithmic units	3.8909 logarithmic units	0.769 logarithmic units	–
B3	0.891 +/− 0.118 logarithmic units	0.353 +/− 0.086 logarithmic units	0.850 +/− 0.032 logarithmic units	0.327 +/− 0.057 logarithmic units	0.584 +/− 0.024 logarithmic units	0.205 +/− 0.088 logarithmic units	–	–	–	–	–	–	–	–	–
B4	–	–	–	–	–	–	>4,386 logarithmic units	1.014 +/− 0.139 logarithmic units	0.952 +/− 0.213 logarithmic units	0.300 +/− 0.062 logarithmic units	1.545 +/− 0.102 logarithmic units	1.104 +/− 0.039 logarithmic units	4.255 +/− 0.001 logarithmic units	1.163 +/− 0.073 logarithmic units	Δ, difference of activity between P2gp09 and PKP2gp09 samples ([4]; 1.315 μM + 0.5 mM EDTA): >0.467 logarithmic units; Δ, difference of activity between P2gp09 and PKP2gp09 samples ([4]; 1.315 μM, no EDTA): 0.595 logarithmic units; Δ, difference of activity between P2gp09 and PKP2gp09 samples ([5]; 1.315 μM + 0.5 mM EDTA): 0.370 logarithmic units; Δ, difference of activity between P2gp09 and PKP2gp09 samples ([5]; 1.315 μM, no EDTA): 0.054 logarithmic units; Δ, difference of activity between P2gp09 and PKP2gp09 samples ([6]; 1.315 μM + 0.5 mM EDTA): 0.749 logarithmic units; Δ, difference of activity between P2gp09 and PKP2gp09 samples ([6]; 1.315 μM, no EDTA): 0.353 logarithmic units; Δ, difference of activity between P2gp09 and PKP2gp09 samples ([7]; 1.315 μM + 0.5 mM EDTA): 0.365 logarithmic units; Δ, difference of activity between P2gp09 and PKP2gp09 samples ([7]; 1.315 μM, no EDTA): 0.394 logarithmic units
